We go through 2 substances from patent publication US20230174623A1.

This assay deals with collagen within the matrix fraction of excised B16F10 tumors. In words: depletion of AF647-LAIR fluorescence from solution by the B16F10 tumor matrix fraction, at steady state.

In the case of AF647-labeled LAIR, the decrease in solution concentration (LAIR depleted from the bath) amounted to 20%. Regarding AF647-labeled LAIR (receptor), the uptake into the tumor matrix (LAIR binding sites of a tumor) turned out to be 0.2 nmol.
